Reference: patent US20120328616A1 (Amgen, published 2012)
Where a chain is given by its changes, count along the chain named.

T1: huBeta_Klotho (1-81, 523-1044) (muBetaKLOTHO 82-520) (human; murine, UniProt Q86Z14 1-1044)
T1 construct: Expressed on HEK-293T cells; also called Chimera 1; Construct 1
T1 chain: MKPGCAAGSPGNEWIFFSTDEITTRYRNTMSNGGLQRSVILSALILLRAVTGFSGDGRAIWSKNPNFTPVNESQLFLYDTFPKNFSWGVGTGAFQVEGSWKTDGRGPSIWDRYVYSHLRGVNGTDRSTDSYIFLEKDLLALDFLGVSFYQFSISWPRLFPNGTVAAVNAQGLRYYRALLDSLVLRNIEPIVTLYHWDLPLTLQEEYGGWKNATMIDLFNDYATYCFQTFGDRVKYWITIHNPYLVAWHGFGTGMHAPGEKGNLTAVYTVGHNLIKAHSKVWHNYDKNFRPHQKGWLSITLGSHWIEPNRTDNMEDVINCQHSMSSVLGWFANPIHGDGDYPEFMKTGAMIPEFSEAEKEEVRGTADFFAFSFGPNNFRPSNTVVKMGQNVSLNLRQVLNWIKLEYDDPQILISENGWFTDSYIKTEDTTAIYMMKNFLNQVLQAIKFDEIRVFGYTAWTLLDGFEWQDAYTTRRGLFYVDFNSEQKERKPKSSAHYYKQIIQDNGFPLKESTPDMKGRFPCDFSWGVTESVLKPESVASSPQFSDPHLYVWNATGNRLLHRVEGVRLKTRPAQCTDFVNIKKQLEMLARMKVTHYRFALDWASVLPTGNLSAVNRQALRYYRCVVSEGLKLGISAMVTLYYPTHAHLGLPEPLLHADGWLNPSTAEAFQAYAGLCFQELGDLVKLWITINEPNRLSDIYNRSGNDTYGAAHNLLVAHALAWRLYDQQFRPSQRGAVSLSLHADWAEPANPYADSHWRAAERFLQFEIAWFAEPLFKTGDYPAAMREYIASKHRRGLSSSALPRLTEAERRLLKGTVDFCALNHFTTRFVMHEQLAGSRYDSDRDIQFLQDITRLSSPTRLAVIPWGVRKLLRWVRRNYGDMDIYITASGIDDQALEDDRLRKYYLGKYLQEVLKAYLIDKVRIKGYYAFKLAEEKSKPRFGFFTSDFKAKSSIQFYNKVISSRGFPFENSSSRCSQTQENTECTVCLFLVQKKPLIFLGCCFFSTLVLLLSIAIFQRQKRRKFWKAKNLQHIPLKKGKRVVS

B1: 51E5.1 (antibody, V domains shown)
VH: QVQLQQWGAGLLKPSETLSLTCAVYGGSFSGYYWSWIRQPPGKGLEWIGELDHSGSINYNPSLKSRVTISVDTSKNQFSLKLTSVTAADTAVYYCARVLGSTLDYWGQGTLVTVSS
VL: DIQMTQSPSSLSASVGDRVTITCRASQDIRNDLGWYQQKPGKAPNRLIYAASSLQFGVPSRFSGSGSGTEFTLTISSLQPEDFATYYCLQHSSYPLTFGGGTRVEIKR
B2: 66G2.1 (antibody, V domains shown)
VH: QVQLVESGGGVVQPGRSLRLSCAASGFTFSSYGMHWVRQAPGKGLEWVAGISYDGSNKNYADSVKGRITISRDNPKNTLYLQMNSLRAEDTAVYYCATTVTKEDYYYYGMDVWGQGTTVTVSS
VL: B1 VL with D28G, N45K, S53N, F56S, E70K, S76N, H91L, S92N, S93G, R103K
B3: 65C3.1 (antibody, V domains shown)
VH: QVQLQESGPGLVKPSETLSLTCTVSGGSISSYYWSWIRQPPGKGLEWIGYIYYTGSTNYNPSLKSRVTISVDTSKNQFSLKLSSVTAADTAVYYCAREYYYGSGSYYPWGQGTLVTVSS
VL: EMVMTQSPATLSVSPGERATLSCRASQSVSSQLAWYQEKPGRAPRLLIYGASNRAIDIPARLSGSGSGTEFTLTISSLQSEDFAVYYCQQYNNWPWTFGQGTKVEFKR
B4: 67F5.1 (antibody, V domains shown)
VH: B3 VH with Q5K, T54S, S56N
VL: EIVMTQSPATLSVSPGERVTLSCRASQSVSSNLAWYQQKPGQAPRLLIHGSSNRAIGIPARFSGSGSGTEFTLTISSLQSADFAVYNCQQYEIWPWTFGQGTKVEIKR
B5: 67C10.1 (antibody, V domains shown)
VH: EVQLVQSGAEVKKPGESLKISCQGSGYSFSSYWIGWVRQMPGKGLEWMGIIYPGDSDTRYSPSFQGQVTISADKSINTAYLQWSSLKASDTAIYYCARRASRGYRYGLAFAIWGQGTMVTVSS
VL: DFVMTQTPLSLPVTPGEPASISCRSSQSLLNSDDGNTYLDWYLQKPGQSPQLLIYTLSYRASGVPDRFSGSGSGTDFTLKISRVEAEDVGVYYCMQRIEFPITFGQGTRLEIKR
B6: 49G3.3 (antibody, V domains shown)
VH: QVTLKESGPVLVKPTETLTLTCTVSGFSLSNPRMGVSWIRQPPGKALEWLTHIFSNDEKSYSTSLKSRLTISKDTSKSQVVLSMTNMDPVDTATYYCVRVDTLNYHYYGMDVWGQGTTVTVSS
VL: DIQMTQSPSSLSASIGDRVTITCQASQGISNYLNWYQQKPGKAPKLLIYDASNLETGVPSRFSGSGSGTDFTFTISSLQPEDIATYYCHQYDDLPLTFGGGTKVEIRR

These binders were tested against T2, huBeta_Klotho (1-507) (muBetaKLOTHO 506F-1045S) (human; murine, UniProt Q99N32 1-1043) (assay: flow cytometry, transfected HEK-293T).
T2 construct: also called Chimera 2; Construct 2

| binding result | Binder |
| --- | --- |
| no binding | B1 |
| no binding | B2 |
| no binding | B3 |
| no binding | B4 |
| no binding | B5 |
| binds | B6 |

The binders below were run against T3, huBeta_Klotho (194-1044) (muBetaKLOTHO 1-L193) (murine; human, UniProt Q86Z14 1-1044) (assay: flow cytometry, transfected HEK-293T).
T3 construct: also called Chimera 3; Construct 3

| binding result | Binder |
| --- | --- |
| binds | B1 |
| binds | B2 |
| binds | B3 |
| binds | B4 |
| binds | B5 |
| no binding | B6 |

What follows are binders tested against T4, huBeta_Klotho (1-81, 303-1044) (muBetaKLOTHO 82P-302S) (human; murine, UniProt Q86Z14 1-1044) (assay: flow cytometry, transfected HEK-293T).
T4 construct: also called Chimera 4; Construct 4

| binding result | Binder |
| --- | --- |
| binds | B1 |
| binds | B2 |
| binds | B3 |
| binds | B4 |
| binds | B5 |
| binds | B6 |

Each binder was assayed against T5, huBeta_Klotho (1-193, 419-1044) (muBetaKLOTHO Y194-416G) (human; murine, UniProt Q86Z14 1-1044) (assay: flow cytometry, transfected HEK-293T).
T5 construct: also called Chimera 5; Construct 5

| binding result | Binder |
| --- | --- |
| binds | B1 |
| binds | B2 |
| binds | B3 |
| binds | B4 |
| binds | B5 |
| no binding | B6 |

What follows are binders tested against T6, huBeta_Klotho(1-301, 509-1044) (muBetaKLOTHO S302-F506) (human; murine, UniProt Q86Z14 1-1044) (assay: flow cytometry, transfected HEK-293T).
T6 construct: also called Chimera 6; Construct 6

| binding result | Binder |
| --- | --- |
| binds | B1 |
| binds | B2 |
| binds | B3 |
| binds | B4 |
| binds | B5 |
| no binding | B6 |

What follows are binders tested against T7, huBeta_Klotho (1-521, 738-1044) (muBeta KLOTHO 520P-735A) (human; murine, UniProt Q86Z14 1-1044) (assay: flow cytometry, transfected HEK-293T).
T7 construct: also called Chimera 9; Construct 9

| binding result | Binder |
| --- | --- |
| no binding | B1 |
| no binding | B2 |
| binds | B3 |
| no binding | B4 |
| no binding | B5 |
| binds | B6 |

These binders were tested against T8, huBeta_Klotho (1-633, 852-1044) (muBeta KLOTHO 632G-849Q) (human; murine, UniProt Q86Z14 1-1044) (assay: flow cytometry, transfected HEK-293T).
T8 construct: also called Chimera 10; Construct 10

| binding result | Binder |
| --- | --- |
| no binding | B1 |
| no binding | B2 |
| binds | B3 |
| no binding | B4 |
| no binding | B5 |
| binds | B6 |

Each binder was assayed against T9, huBeta_Klotho (1-736, 967-1044) (muBeta KLOTHO 735A-963S) (human; murine, UniProt Q86Z14 1-1044) (assay: flow cytometry, transfected HEK-293T).
T9 construct: also called Chimera 11; Construct 11

| binding result | Binder |
| --- | --- |
| no binding | B1 |
| no binding | B2 |
| no binding | B3 |
| no binding | B4 |
| no binding | B5 |
| binds | B6 |

What follows are binders tested against T10, huBeta_Klotho (82-1044) (muBeta KLOTHO 1-81F) (murine; human, UniProt Q86Z14 1-1044) (assay: flow cytometry, transfected HEK-293T).
T10 construct: also called Chimera 12; Construct 12

| binding result | Binder |
| --- | --- |
| binds | B1 |
| binds | B2 |
| binds | B3 |
| binds | B4 |
| binds | B5 |
| no binding | B6 |

What follows are binders tested against T11, huBeta_Klotho (1-81, 194-1044) (muBeta KLOTHO 82P-193L) (human; murine, UniProt Q86Z14 1-1044) (assay: flow cytometry, transfected HEK-293T).
T11 construct: also called Chimera 13; Construct 13

| binding result | Binder |
| --- | --- |
| binds | B1 |
| binds | B2 |
| binds | B3 |
| binds | B4 |
| binds | B5 |
| binds | B6 |

Molecular target: T1, huBeta_Klotho (1-81, 523-1044) …
Assay: flow cytometry, transfected HEK-293T

| binding result | Binder |
| --- | --- |
| binds | B1 |
| binds | B2 |
| binds | B3 |
| binds | B4 |
| binds | B5 |
| no binding | B6 |
